Measured values taken from patent publication US20140050720A1, “ULTRALONG COMPLEMENTARITY DETERMINING REGIONS AND USES THEREOF” (THE SCRIPPS RESEARCH INSTITUTE, priority 2012, published 2014).

Key:
TF-1 cells = test: Proliferation assay on TF-1 cells (AlamarBlue); assay type: cell-based; conditions: 72 h
Description: TF-1 cells were obtained from American Type Culture Collection (ATCC), VA, and cultured in RPMI-1640 medium supplemented with 10% fetal bovine serum (FBS), penicillin, streptomycin and 2 ng/mL granulocyte-macrophage colony-stimulating factor (GM-CSF). For proliferation assay, TF-1 cells were washed three times with RPMI-1640 medium and resuspended in RPMI-1640 medium with 10% FBS and penicillin and streptomycin at a density of 1.5×10^5 cells/ml. Cells were plated in 96-well plates and treated with varied concentrations of BLV1H12-hEPO fusion antibodies. After 72 h of incubation at 37° C. with 5% CO2, cells viabilities were measured using AlamarBlue (Invitrogen) assay following manufacture's instruction. FIG. 21 and Table 18 show the proliferative activity of Ab-hEPO fusion antibodies on TF1 cells.

[1] = test system: human peripheral blood mononuclear cells (PBMCs); test: Inhibition of human PBMC activation (secreted TNF-α ELISA); assay type: cell-based; conditions: PBMCs activated by anti-CD3 and CD28 antibodies, 24 h
Description: Human PBMCs were isolated from fresh venous blood of healthy donors through ficoll gradient centrifugation, followed by resuspension in RPMI1640 medium with 10% FBS and plating in 96-well plates at a density of 1×10^6 cells/mL. Human T cells were purified from the isolated PBMCs using T cell enrichment kit. Purified PBMCs and T cells were pretreated for 1 h at 37° C. with 5% CO2 with various concentrations of purified BLV1H12-Moka1 fusion antibodies and then activated by anti-CD3 and CD28 antibodies. After 24 h treatment, supernatant was collected for measurement of the levels of secreted TNF-α using ELISA kit.

Human mPB CD34+ cells = test: Proliferative activity on human granulocyte progenitors (flow cytometry); assay type: cell-based; conditions: for Number of CD45RA− CD41−: 7 days
Description: Human mPB CD34^+ cells were purchased from AllCells. Cells were resuspended in HSC expansion medium (StemSpan SFEM, StemCell Technologies) supplemented with 1× antibiotics and the following recombinant human cytokines thrombopoietin, IL6, Flt3 ligand, and stem cell factor (100 ng/mL, R & D Systems), then plated in 96-well plates (1000 cells per well), with varied concentrations of BLV1H12-bGCSF fusion antibodies. Cells were cultured for 7 days at 37° C. in a 5% CO2 incubator, then analyzed by flow cytometry to measure cell number and expression of CD45ra and CD41. Cells were stained in staining medium (HBSS supplemented with 2% FBS and 2 mM EDTA) at 4° C. for 1 h with PECy7 anti-CD45ra and eFluor 450 anti-CD41 (eBiosciences), then washed with staining medium and analyzed. Multicolor analysis for cell phenotyping was performed on a LSR II flow cytometer (Becton Dickinson). FIGS. 10A-10E and Tables 9-10 show the human granulocyte progenitor cell proliferative activities of the Ab-GCSF fusion antibodies.

Parental U2OS = test: Flow cytometry binding to parental cells; conditions: cell culture supernatant containing expressed IgG, anti-Human Fc detection
Description: Briefly, a cell line expressing functionally validated CXCR1 derived from U2OS cells was obtained from DiscoveRx and cultured per manufacturer's instructions (Cat#93-0226C3, DiscoveRx Corporation, Freemont, Calif.). The parental cell line U20S was obtained from ATCC and cultured under the same conditions as the CXCR1 cells. Cell culture supernatants from Example 2 above were then tested for binding to cells by flow cytometry. The adherent U20S or CXCR1-U20S cells were dissociated with Accutase (Innovative Cell Technologies, Inc., San Diego, Calif.), neutralized with an equal volume of media containing 10% serum, centrifuged at 1000 g, and resuspended in PBS with 2% BSA. Next, cells were dispensed into microtiter plates to achieve between 30,000 to 300,000 cells per well, centrifuged again, and resuspended in cell culture supernatant containing expressed IgG, or a dilution of IgG-containing cell culture supernatant. A fluorescent-conjugated anti-Human Fc antibody was used to detect binding of the expressedBLV1H12-IL8 fusion proteins to cells.

B1: Ab: bovine BLV1H12 antibody with ultralong CDR3, no inserted polypeptide; heavy chain SEQ ID NO: 24, light chain SEQ ID NO: 23 (antibody)
heavy: QVQLRESGPSLVKPSQTLSLTCTASGFSLSDKAVGWVRQAPGKALEWLGSIDTGGNTGYNPGLKSRLSITKDNSKSQVSLSVSSVTTEDSATYYCTSVHQETKKYQSCPDGYRERSDCSNRPACGTSDCCRVSVFGNCLTTLPVSYSYTYNYEWHVDVWGQGLLVTVSS
light: QAVLNQPSSVSGSLGQRVSITCSGSSSNVGNGYVSWYQLIPGSAPRTLIYGDTSRASGVPDRFSGSRSGNTATLTISSLQAEDEADYFCASAEDSSSNAVFGSGTTLTVLGQPKSPPSVTLFPPSTEELNGNKATLVCLISDFYPGSVTVVWKADGSTITRNVETTRASKQSNSKYAASSYLSLTSSDWKSKGSYSCEVTHEGSTVTKTVKPSECS
TF-1 cells; 0.00236 nM
  F.I. (AlamarBlue, cell viability): 4274.07
TF-1 cells; 0.01178 nM
  F.I. (AlamarBlue, cell viability): 4267.586
TF-1 cells; 0.05888 nM
  F.I. (AlamarBlue, cell viability): 3905.529
TF-1 cells; 0.2944 nM
  F.I. (AlamarBlue, cell viability): 4091.452
TF-1 cells; 1.472 nM
  F.I. (AlamarBlue, cell viability): 4109.106
TF-1 cells; 7.36 nM
  F.I. (AlamarBlue, cell viability): 4071.234
TF-1 cells; 36.8 nM
  F.I. (AlamarBlue, cell viability): 4100.011
TF-1 cells; 184 nM
  F.I. (AlamarBlue, cell viability): 4413.497
TF-1 cells; 4.71E−04 nM
  F.I. (AlamarBlue, cell viability): 4223.257
TF-1 cells; 9.42E−05 nM
  F.I. (AlamarBlue, cell viability): 4108.119
[1]; 2 nM
  F.I. (secreted TNF-α, ELISA): 2334
[1]; 20 nM
  F.I. (secreted TNF-α, ELISA): 2186
[1]; 200 nM
  F.I. (secreted TNF-α, ELISA): 1982
[1]; 400 nM
  F.I. (secreted TNF-α, ELISA): 1733
Human mPB CD34+ cells
  human granulocyte progenitor cell proliferative activity: lack of proliferative activity
Human mPB CD34+ cells; 0.28959 ng/mL
  Number of CD45RA− CD41−: 3666
Human mPB CD34+ cells; 0.86877 ng/mL
  Number of CD45RA− CD41−: 3839
Human mPB CD34+ cells; 2.60631 ng/mL
  Number of CD45RA− CD41−: 3852
Human mPB CD34+ cells; 23.45679 ng/mL
  Number of CD45RA− CD41−: 3519
Human mPB CD34+ cells; 70.37037 ng/mL
  Number of CD45RA− CD41−: 3541
Human mPB CD34+ cells; 211.11111 ng/mL
  Number of CD45RA− CD41−: 3606
Human mPB CD34+ cells; 5700 ng/mL
  Number of CD45RA− CD41−: 4100
Parental U2OS
  Median Arbitrary Fluorescence Units (AFU): 4 AFU
